Target: T1, ectodomain of human CTLA-4 (aa 31-161) (human, UniProt P16410-1)
T1 construct: CTLA-4, human, ectodomain, residues 31-161 of UniProt P16410-1; Homodimer held by a disulfide bond (non-reducing SDS-PAGE and crystal structure); Cloned into pET-21a; also called extracellular domain of CTLA-4
Assay: SPR; BIAcore T100, CM5 chip, CTLA-4 immobilised (5 μg/ml), scFv flowed at 6.25-200 nM, room temperature, HBS-EP (150 mM NaCl, 10 mM HEPES pH 7.4, 0.005% Tween-20), 1:1 Langmuir model
Conditions: both partners purified

T1 sequence (P16410 31-161): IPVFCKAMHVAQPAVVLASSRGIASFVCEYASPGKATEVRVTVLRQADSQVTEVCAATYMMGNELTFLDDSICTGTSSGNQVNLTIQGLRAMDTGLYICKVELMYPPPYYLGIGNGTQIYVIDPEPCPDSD

B1: scFv fragment of tremelimumab (scFv, V domains shown)
VH: QVQLVESGGGVVQPGRSLRLSCAASGFTFSSYGMHWVRQAPGKGLEWVAVIWYDGSNKYYADSVKGRFTISRDNSKNTLYLQMNSLRAEDTAVYYCARDPRGATLYYYYYGMDVWGQGTTVTVSS
VL: DIQMTQSPSSLSASVGDRVTITCRASQSINSYLDWYQQKPGKAPKLLIYAASSLQSGVPSRFSGSGSGTDFTLTISSLQPEDFATYYCQQYYSTPFTFGPGTKVEIK
notes: VL of tremelimumab (IGKV1-39 framework); the Fab of tremelimumab is in PDB 5GGV; linker, printed as GG(GGSGG)3GG; VH of tremelimumab (IGHV3-33 framework); Built as VL-GG(GGSGG)3GG-VH in pET21a; The parent antibody is an IgG2; only the scFv was made here; also called tremelimumab-scFv; CP-675,206
Question: How did the Kd turn out when B1 was run?
Answer: 5.89 nM

Question: What about the koff of the same binder?
Answer: 0.0018 s⁻¹

Question: And the kon?
Answer: 308000 M⁻¹ s⁻¹

Reference: PMC5620161, “Remarkably similar CTLA-4 binding properties of therapeutic ipilimumab and tremelimumab antibodies” (Oncotarget, 2017)
